The results in this text go back to patent US20050026285A1 (Harvard, published 2005).

Assay [1] has as its target c-Jun (recombinant: overexpressed in 293T cells or in vitro translated). The experiment in a line: cell-based or functional assay.
Another assay addresses c-Jun/c-Fos AP-1 complex. The assay is described as follows: cell-based or functional assay.
Assay [2] has as its target endogenous KRC of EL4 T cells (UniProt A2A884 1-2348, limits assumed). The experiment in a line: anti-c-Jun IP from PMA/ionomycin-stimulated EL4 cells, blot with anti-KRC antisera. The procedure:
(§1) FIG. 21(A) 293T cells were transfected with c-Jun and myc-KRCtr. 48 hours later, lysates were immunoprecipitated with anti-Myc antibody. Immunoprecipitates were probed by western blotting with anti-c-Jun antibody. FIG. 21(B) (left panel) 293T cells were cotransfected with c-Jun and full length His-KRC. 48 hours later, lysates were immunoprecipitated with anti-His antibody (DE8 Omniprobe) and precipitates were probed by western blotting with anti-c-Jun antibody. (right panel) In vitro translated and S35-labelled c-Jun and His-KRCtr were mixed and immunoprecipitated with anti-His antibody. Recovered c-Jun protein was visualized by autoradiography. FIG. 21(C) Jurkat or EL4 T cells were stimulated with PMA plus ionomycin for 45 minutes. Lysates were immunoprecipitated with anti-c-Jun antibody, and immunoprecipitates were probed with specific anti-KRC rabbit antisera. FIG. 21(D) (upper panel) 293T cells were transfected with AP-1 Luciferase along with c-Jun, c-Fos, and KRC. 24 hours later, Luciferase activity was determined as above. […] 24 hours later, luciferase activity was determined as above. […]

Assay [3] has as its target T1, endogenous KRC of Jurkat T cells (human, UniProt Q5T1R4 1-2406, limits assumed).
T1 construct: Detected with anti-KRC rabbit antisera in anti-c-Jun immunoprecipitates
The assay is described as follows: anti-c-Jun IP from PMA/ionomycin-stimulated Jurkat cells, blot with anti-KRC antisera. On the procedure: as §1

endogenous KRC of EL4 T cells, sequence (A2A884 whole entry): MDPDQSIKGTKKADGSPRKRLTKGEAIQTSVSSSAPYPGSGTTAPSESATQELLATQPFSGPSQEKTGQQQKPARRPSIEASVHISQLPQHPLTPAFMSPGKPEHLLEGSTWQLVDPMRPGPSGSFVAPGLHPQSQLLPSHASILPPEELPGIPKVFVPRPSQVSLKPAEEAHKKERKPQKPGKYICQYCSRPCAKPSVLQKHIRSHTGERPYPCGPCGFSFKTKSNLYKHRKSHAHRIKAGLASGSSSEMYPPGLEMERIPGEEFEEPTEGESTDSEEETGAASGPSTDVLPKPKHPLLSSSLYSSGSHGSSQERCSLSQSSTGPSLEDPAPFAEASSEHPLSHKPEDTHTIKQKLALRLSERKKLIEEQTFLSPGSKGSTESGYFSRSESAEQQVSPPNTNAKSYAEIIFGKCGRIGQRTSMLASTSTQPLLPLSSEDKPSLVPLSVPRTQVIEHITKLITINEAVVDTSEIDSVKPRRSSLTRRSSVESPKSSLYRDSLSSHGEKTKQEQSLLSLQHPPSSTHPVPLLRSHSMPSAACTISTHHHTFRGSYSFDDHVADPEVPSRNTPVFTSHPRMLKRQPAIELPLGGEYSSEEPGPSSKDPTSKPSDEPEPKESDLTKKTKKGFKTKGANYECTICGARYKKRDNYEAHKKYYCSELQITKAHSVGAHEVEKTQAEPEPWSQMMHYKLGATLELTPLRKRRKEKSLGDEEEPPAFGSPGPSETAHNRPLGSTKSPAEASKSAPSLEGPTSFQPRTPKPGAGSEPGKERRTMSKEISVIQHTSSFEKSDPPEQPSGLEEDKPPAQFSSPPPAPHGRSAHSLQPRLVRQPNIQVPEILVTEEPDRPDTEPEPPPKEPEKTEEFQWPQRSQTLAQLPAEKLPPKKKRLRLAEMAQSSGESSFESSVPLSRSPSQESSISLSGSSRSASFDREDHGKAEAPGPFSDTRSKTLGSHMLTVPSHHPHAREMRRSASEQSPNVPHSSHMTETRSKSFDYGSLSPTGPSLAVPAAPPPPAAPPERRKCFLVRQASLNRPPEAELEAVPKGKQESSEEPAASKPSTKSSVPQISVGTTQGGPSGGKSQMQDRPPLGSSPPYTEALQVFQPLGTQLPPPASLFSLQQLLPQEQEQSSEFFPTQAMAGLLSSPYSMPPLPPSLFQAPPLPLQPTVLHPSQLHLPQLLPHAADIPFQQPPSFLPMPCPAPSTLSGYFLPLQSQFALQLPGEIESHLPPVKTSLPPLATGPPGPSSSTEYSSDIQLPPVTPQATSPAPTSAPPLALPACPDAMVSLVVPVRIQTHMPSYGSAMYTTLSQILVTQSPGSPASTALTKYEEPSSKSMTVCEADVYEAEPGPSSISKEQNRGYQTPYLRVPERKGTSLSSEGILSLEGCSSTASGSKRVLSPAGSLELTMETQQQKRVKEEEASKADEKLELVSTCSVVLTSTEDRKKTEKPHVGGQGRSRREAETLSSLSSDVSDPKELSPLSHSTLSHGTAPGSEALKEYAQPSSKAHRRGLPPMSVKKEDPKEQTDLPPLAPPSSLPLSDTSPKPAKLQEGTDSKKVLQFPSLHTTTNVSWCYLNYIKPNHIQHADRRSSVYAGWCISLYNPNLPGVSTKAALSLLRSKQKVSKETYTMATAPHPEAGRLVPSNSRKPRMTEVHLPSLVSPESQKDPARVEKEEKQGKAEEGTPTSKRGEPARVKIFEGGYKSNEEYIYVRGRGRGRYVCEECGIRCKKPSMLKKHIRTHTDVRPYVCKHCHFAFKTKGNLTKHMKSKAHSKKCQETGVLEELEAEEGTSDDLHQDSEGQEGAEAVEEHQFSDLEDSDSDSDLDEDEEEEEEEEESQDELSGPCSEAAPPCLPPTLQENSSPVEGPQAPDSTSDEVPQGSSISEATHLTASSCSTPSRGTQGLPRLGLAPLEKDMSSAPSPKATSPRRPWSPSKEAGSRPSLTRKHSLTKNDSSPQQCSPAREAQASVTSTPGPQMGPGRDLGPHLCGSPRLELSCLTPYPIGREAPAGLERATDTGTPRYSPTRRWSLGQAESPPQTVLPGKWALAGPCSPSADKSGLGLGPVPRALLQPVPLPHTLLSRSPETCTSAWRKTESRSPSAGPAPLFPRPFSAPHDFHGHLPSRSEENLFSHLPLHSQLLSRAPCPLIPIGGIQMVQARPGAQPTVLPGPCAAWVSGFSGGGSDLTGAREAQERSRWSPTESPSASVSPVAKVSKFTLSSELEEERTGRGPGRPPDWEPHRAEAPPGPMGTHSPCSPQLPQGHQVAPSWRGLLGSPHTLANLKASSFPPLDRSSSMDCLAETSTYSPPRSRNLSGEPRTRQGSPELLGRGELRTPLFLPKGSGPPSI
T1 sequence (Q5T1R4 whole entry): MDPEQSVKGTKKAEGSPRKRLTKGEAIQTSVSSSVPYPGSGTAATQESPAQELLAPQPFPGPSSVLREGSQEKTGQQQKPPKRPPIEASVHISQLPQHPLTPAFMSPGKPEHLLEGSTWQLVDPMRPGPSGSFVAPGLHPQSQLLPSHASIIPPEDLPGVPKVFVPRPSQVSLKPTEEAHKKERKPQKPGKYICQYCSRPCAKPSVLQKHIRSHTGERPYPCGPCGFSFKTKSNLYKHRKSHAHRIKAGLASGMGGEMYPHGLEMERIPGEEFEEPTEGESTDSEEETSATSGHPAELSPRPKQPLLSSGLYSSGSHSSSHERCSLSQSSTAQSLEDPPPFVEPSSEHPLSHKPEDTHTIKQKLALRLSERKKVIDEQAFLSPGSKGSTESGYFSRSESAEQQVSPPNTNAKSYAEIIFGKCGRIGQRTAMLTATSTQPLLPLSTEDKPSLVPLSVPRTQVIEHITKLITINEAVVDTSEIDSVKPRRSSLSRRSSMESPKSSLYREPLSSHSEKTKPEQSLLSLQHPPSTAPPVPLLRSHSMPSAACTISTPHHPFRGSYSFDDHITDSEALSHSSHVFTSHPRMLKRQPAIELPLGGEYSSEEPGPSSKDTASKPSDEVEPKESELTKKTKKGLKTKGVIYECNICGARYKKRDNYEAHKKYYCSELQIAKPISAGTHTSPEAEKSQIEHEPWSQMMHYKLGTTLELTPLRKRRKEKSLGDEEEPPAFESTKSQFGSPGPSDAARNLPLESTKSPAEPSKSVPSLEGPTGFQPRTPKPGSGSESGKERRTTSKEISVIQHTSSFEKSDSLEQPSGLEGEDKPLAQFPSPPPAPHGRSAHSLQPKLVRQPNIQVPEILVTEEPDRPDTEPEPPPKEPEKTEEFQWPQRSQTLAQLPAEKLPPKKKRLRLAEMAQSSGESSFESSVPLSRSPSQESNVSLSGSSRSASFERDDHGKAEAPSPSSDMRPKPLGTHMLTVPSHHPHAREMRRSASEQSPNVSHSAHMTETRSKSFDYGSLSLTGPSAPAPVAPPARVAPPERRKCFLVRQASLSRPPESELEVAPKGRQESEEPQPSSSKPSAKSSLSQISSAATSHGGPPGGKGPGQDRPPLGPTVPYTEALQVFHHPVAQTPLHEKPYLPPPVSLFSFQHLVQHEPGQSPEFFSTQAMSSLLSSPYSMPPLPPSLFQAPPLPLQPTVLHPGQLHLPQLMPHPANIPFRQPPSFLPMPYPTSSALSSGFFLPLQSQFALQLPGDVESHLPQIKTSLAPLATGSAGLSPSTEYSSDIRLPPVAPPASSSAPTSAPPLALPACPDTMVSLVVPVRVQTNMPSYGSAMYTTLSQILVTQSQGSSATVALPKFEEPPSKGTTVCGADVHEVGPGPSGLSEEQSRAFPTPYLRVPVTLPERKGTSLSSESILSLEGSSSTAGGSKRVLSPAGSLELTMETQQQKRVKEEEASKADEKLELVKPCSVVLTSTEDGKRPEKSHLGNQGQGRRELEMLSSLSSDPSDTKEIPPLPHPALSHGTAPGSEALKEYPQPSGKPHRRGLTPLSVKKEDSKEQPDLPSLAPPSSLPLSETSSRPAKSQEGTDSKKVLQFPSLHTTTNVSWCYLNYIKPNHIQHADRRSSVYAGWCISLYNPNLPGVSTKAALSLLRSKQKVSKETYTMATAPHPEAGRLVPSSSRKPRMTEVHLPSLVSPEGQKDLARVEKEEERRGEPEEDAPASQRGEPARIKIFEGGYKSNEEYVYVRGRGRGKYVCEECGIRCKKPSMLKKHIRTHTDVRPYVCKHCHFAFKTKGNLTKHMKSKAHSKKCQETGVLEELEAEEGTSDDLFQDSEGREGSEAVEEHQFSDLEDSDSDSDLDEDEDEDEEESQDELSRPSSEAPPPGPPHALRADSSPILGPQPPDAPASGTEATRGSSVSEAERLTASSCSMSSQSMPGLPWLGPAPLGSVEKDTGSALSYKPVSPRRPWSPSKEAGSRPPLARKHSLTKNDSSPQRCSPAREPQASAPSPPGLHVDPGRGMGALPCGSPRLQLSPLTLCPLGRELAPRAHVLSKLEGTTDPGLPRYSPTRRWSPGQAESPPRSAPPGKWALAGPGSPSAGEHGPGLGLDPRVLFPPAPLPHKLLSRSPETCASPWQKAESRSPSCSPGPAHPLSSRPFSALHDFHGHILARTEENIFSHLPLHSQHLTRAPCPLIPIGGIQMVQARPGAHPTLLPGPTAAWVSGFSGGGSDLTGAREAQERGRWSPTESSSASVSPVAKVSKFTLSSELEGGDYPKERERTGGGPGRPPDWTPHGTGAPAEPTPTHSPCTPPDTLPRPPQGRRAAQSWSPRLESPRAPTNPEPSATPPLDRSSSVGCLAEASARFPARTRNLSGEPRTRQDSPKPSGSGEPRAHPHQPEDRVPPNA

“KRC (full-length, overexpressed; tag or construct not further specified), Q5T1R4 1-2406”: the AP-1 luciferase reporter activity in 293T cells overexpressing c-Jun in assay [1] turned out to be 5 fold. In the assay with c-Jun/c-Fos AP-1 complex, the AP-1 luciferase reporter activity in 293T cells overexpressing c-Jun plus c-Fos turned out to be 5 fold.

B1: endogenous c-Jun of EL4 T cells (other, UniProt P05627 1-334, looked up)
chain: MTAKMETTFYDDALNASFLQSESGAYGYSNPKILKQSMTLNLADPVGSLKPHLRAKNSDLLTSPDVGLLKLASPELERLIIQSSNGHITTTPTPTQFLCPKNVTDEQEGFAEGFVRALAELHSQNTLPSVTSAAQPVSGAGMVAPAVASVAGAGGGGGYSASLHSEPPVYANLSNFNPGALSSGGGAPSYGAAGLAFPSQPQQQQQPPQPPHHLPQQIPVQHPRLQALKEEPQTVPEMPGETPPLSPIDMESQERIKAERKRMRNRIAASKCRKRKLERIARLEEKVKTLKAQNSELASTANMLREQVAQLKQKVMNHVNSGCQLMLTQQLQTF
notes: also called AP-1 complexes
As for B1, the binding result in assay [2] was “binds”.

B2: endogenous c-Jun of Jurkat T cells (other, human, UniProt P05412 1-331, looked up)
chain: MTAKMETTFYDDALNASFLPSESGPYGYSNPKILKQSMTLNLADPVGSLKPHLRAKNSDLLTSPDVGLLKLASPELERLIIQSSNGHITTTPTPTQFLCPKNVTDEQEGFAEGFVRALAELHSQNTLPSVTSAAQPVNGAGMVAPAVASVAGGSGSGGFSASLHSEPPVYANLSNFNPGALSSGGGAPSYGAAGLAFPAQPQQQQQPPHHLPQQMPVQHPRLQALKEEPQTVPEMPGETPPLSPIDMESQERIKAERKRMRNRIAASKCRKRKLERIARLEEKVKTLKAQNSELASTANMLREQVAQLKQKVMNHVNSGCQLMLTQQLQTF
notes: also called AP-1 complexes
Take B2: the binding result in assay [3] is listed as “binds”.
